# Reference: publication PMC9636275 (Nature Communications, 2022)
# Substitutions are numbered along the chain they refer to. In names and notes the source's numbering stands. Where two headings read alike, the source gives them in different places.
# T1: CobB (Escherichia coli, UniProt P75960)
# T1 sequence (P75960 1-279): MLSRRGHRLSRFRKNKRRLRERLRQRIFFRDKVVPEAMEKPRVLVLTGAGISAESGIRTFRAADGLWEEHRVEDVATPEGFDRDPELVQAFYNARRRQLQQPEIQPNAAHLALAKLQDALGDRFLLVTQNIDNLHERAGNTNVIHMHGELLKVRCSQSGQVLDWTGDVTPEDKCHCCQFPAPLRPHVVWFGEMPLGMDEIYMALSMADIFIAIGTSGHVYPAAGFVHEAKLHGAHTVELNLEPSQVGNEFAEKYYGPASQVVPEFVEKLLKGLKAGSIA
# B1: PncB^K381Q (protein, UniProt P18133 2-400, looked up, variant K381Q)
# Nicotinate …: TQFASPVLHSLLDTDAYKLHMQQAVFHHYYDVHVAAEFRCRGDDLLGIYADAIREQVQAMQHLRLQDDEYQWLSALPFFKADYLNWLREFRFNPEQVTVSNDNGKLDIRLSGPWREVILWEVPLLAVISEMVHRYRSPQADVAQALDTLESKLVDFSALTAGLDMSRFHLMDFGTRRRFSREVQETIVKRLQQESWFVGTSNYDLARRLSLTPMGTQAHEWFQAHQQISPDLANSQRAALAAWLEEYPDQLGIALTDCITMDAFLRDFGVEFASRYQGLRHDSGDPVEWGEKAIAHYEKLGIDPQSKTLVFSDNLDLRKAVELYRHFSSRVQLSFGIGTRLTCDIPQVKPLNIVIKLVECNGKPVAKLSDSPGKTICHDQAFVRALRKAFDLPHIKKAS
# B2: PncB^K381R (protein, UniProt P18133 2-400, looked up, variant K381R)
# Nicotinate …: B1 Nicotinate … with Q380R
# B3: PncB: nicotinate phosphoribosyltransferase, wild type (protein, UniProt P18133 2-400, looked up)
# Nicotinate …: B1 Nicotinate … with Q380K
# B4: Acs: acetyl-CoA synthetase (protein, UniProt P27550 1-652, looked up)
# Acetyl-coenzyme A synthetase: MSQIHKHTIPANIADRCLINPQQYEAMYQQSINVPDTFWGEQGKILDWIKPYQKVKNTSFAPGNVSIKWYEDGTLNLAANCLDRHLQENGDRTAIIWEGDDASQSKHISYKELHRDVCRFANTLLELGIKKGDVVAIYMPMVPEAAVAMLACARIGAVHSVIFGGFSPEAVAGRIIDSNSRLVITSDEGVRAGRSIPLKKNVDDALKNPNVTSVEHVVVLKRTGGKIDWQEGRDLWWHDLVEQASDQHQAEEMNAEDPLFILYTSGSTGKPKGVLHTTGGYLVYAALTFKYVFDYHPGDIYWCTADVGWVTGHSYLLYGPLACGATTLMFEGVPNWPTPARMAQVVDKHQVNILYTAPTAIRALMAEGDKAIEGTDRSSLRILGSVGEPINPEAWEWYWKKIGNEKCPVVDTWWQTETGGFMITPLPGATELKAGSATRPFFGVQPALVDNEGNPLEGATEGSLVITDSWPGQARTLFGDHERFEQTYFSTFKNMYFSGDGARRDEDGYYWITGRVDDVLNVSGHRLGTAEIESALVAHPKIAEAAVVGIPHNIKGQAIYAYVTLNHGEEPSPELYAEVRNWVRKEIGPLATPDVLHWTDSLPKTRSGKIMRRILRKIAAGDTSNLGDTSTLADPGVVEKLLEEKQAIAMPS
# Experiments:
# CobB = biological target: T1, CobB; details: 10 mM NAM, 37 °C, 2 h; result in words
# YiaC [1] = test: ITC affinity of recombinant YiaC with acyl-CoA; assay type: binding, E. coli; details: for Kd: cell 50 μM YiaC titrated with 500 μM acyl-CoA, 37 °C (method), three biological repetitions; for binding (Bin): result in words
# Experimental: (§1) This method was described previously. […] The volume of the first injection was 0.5 μl of 500 μM actyl-CoA (or actylated peptides), and the following 18 injections were 2.0 μl. The binding isotherm was fit with the Origin 8.0 software (OriginLab). Each group had three biological repetitions.
# YiaC [2] = biological target: T2, YiaC (Escherichia coli, UniProt P37664); test: Isothermal titration calorimetry (MicroCal PEAQ-ITC) with acyl-CoA (750 uM in syringe) titrated into YiaC (75 uM in cell) at 25.1 °C according to the data sheet; the methods text gives 500 uM, 50 uM and 37 °C.; assay type: binding; details: n = 3
# T2 construct: recombinant, pET28a vector, expressed in E. coli BL21 (λDE3), purified on HisPur Ni-NTA resin
# T2 sequence (P37664 whole entry): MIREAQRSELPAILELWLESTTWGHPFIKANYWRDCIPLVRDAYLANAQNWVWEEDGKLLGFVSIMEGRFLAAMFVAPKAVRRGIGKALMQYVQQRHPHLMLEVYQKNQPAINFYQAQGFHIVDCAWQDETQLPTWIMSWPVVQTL
# Experimental: as §1
# whole-cell lysates = test: Whole-cell lysate reaction, lactate to La-CoA; design: species or system E. coli MG1655; details: result in words
# Experimental: This method was described previously. In detail, E. coli MG1655 was cultured in LB medium at 37 °C in shaken flasks overnight and harvested the cells by centrifugation, then added lysate buffer [[…], […] and 5 mM MgCl2, PH 7.0] and broke cells by ultrasound on ice, the supernatant was extracted by high-speed centrifugation as the whole protein lysate. Then measured protein concentration by BCA and adjusted the protein concentration to 2 mg/ml. […] Each reaction was performed three biological repetitions.
# (§2) Samples dissolved in water were analyzed by an Orbitrap Exploris 480 (Thermo Scientific) mass spectrometer in positive ESI mode using the settings described previously[65],[66]. […] An Orbitrap Exploris 480 (Thermo Fisher Scientific) was employed for MS analysis. Spray voltage was set to 3.5 kV, funnel RF level at 40, and ion transfer tube temperature at 320 °C. Data were collected by Xcalibur (v.4.0.27.19). The orbitrap mass analyzer was used as the MS1 detector with 120,000 resolution. The normalized AGC target and maximum injection time were set at 70% /standard for MS1. The MS2 detector was used 15,000 resolution. Targeted mass setting is lactyl-CoA: 840.1436, acetyl-CoA: 810.1330 and propionate CoA: 824.1487. […] The relative intensity of acyl-CoA was analyzed by Xcalibur (v.4.0.27.19).
# E. coli MG1655 = test: Growth curve; assay type: cell-based; details: 37 °C, result in words
# Experimental: As previous described, the strains were cultured in LB medium overnight, then diluted 1:1000 in LB or M9 medium (with 1% glucose or 1% pyruvate) and incubated at 37 °C with 96-well plates, and each strain was added to three wells. The absorbance at 600 nm at initiation was set as a blank and measured every hour using a spectrophotometer. All the growth dynamic curves were drawn using Origin 8.0.
# PykF [3] = details: in vitro; result in words
# PykF [4] = details: for Relative activity of PykF: intracellular; for intracellular PykF activity: result in words
# PncB = test: In vitro assay for PncB activity; assay type: biochemical, E. coli; details: for enzymatic activity vs wild type: in vitro, result in words
# Experimental: The activity of purified PncB, PncB^K381Q, and PncB^K381R were measured as described. In detail, the purified proteins were added in the reaction buffer [50 mM Tris-HCl, 10 mM MgCl2, 2.5 mM dithiothreitol, 1 mM ATP, […] of bovine serum albumin, 1 mM nicotinic acid and 1 mM 5-phosphoribosyl-1-pyrophosphate (pH 7.5)] at 37 °C for 2 h. The reactions were measured by HPLC-MS/MS to detect the production of […]. Separation was performed on a Vanquish UHPLC system (Thermo Fisher Scientific) with an ACQUITY UPLC BEH C18 column (100 × 2.1 mm, 1.7 μm). Mobile phase A was 0.1% formic acid in water. Mobile phase B was 0.1% formic acid in methanol. […] Injection volume was 2 μl. Nicotinic acid detection was performed on an Orbitrap Exploris 480 spectrometer (Thermo Fisher Scientific, Bremen, Germany) operated with ESI probe. Data were acquired under the following parameters: sheath gas ((N2), 35 Arb; aux gas (N2), 10 Arb; spray voltage, 3500 V (positive mode); and in transfer tube temperature, 320 °C. An SIM was applied for data acquisition.
# Acs = test: In vitro assay for Acs activity; assay type: biochemical, E. coli; details: result in words
# Experimental: This method was performed as described previously. In detail, the purified Acs or PrpE with a final concentration of 0.3 μM were added in the reaction buffer [50 mM HEPES, 10 mM MgCl2, 2.5 mM ATP, 0.5 mM HSCoA, 3 mM phosphoenolpyruvate, 0.1 mM NADH, 1 U pyruvate kinase, 1.5 U lactate dehydrogenase, 5 U myokinase, 10 mM DTT, and 0.2 mM organic acid substrate (acetate, lactate and propionate), PH 7.5] at 25 °C for 30 min. […] Each reaction was performed three biological repetitions.
# as §2
# [5] = Fig. 6e, LB medium 37 °C, replicate 1
# [6] = Fig. 6e, LB medium 37 °C, replicate 2
# [7] = Fig. 6e, LB medium 37 °C, replicate 3
# [8] = Fig. 6g, M9 with 1% glucose, replicate 2
# [9] = Fig. 6g, M9 with 1% glucose, replicate 3
# [10] = replicate 1, 37 °C, 2 h, HPLC-MS/MS
molecule,measurement,setting,value
"NC(=O)c1cccnc1 [NAM, nicotinamide, reference compound]",inhibition of CobB delactylation,CobB,the delactylation reaction could be inhibited by nicotinamide (NAM)
same,"inhibition, deacetylation compared with delactylation",CobB,more effective for deacetylation than delactylation
"CC(=O)SCCNC(=O)CCNC(=O)[C@H](O)C(C)(C)COP(=O)(O)OP(=O)(O)OC[C@H]1O[C@@H](n2cnc3c(N)ncnc32)[C@H](O)[C@@H]1OP(=O)(O)O [acetyl-CoA, Acetyl coenzyme A, reference compound]",Kd,YiaC [1],5.57 µM
same,binding (Bin),YiaC [1],Binding
"CC(=O)SCCNC(=O)CCNC(=O)[C@H](O)C(C)(C)COP(=O)(O)OP(=O)(O)OC[C@H]1O[C@@H](n2cnc3c(N)ncnc32)[C@H](O)[C@@H]1OP(=O)(O)O [acetyl-CoA, acetyl coenzyme A]",Kd,YiaC [2],5.57 µM
"CC(O)C(=O)O (stereo not drawn) [lactate, reference compound]",conversion to lactyl-CoA / lactyl-CoA level,whole-cell lysates,could be effectively converted to lactyl-CoA
"CC(O)C(=O)SCCNC(=O)CCNC(=O)[C@H](O)C(C)(C)COP(=O)(O)OP(=O)(O)OC[C@H]1O[C@@H](n2cnc3c(N)ncnc32)[C@H](O)[C@@H]1OP(=O)(O)O (stereo partly drawn) [lactyl-CoA, lactyl-coenzyme A]",Kd,YiaC [1],6.83 µM
same,binding (Bin),YiaC [1],strong binding
same,binding (Bin),YiaC [1]; listed as laCoA,Binding
same,Kd,YiaC [2],6.83 µM
same,conversion to lactyl-CoA / lactyl-CoA level,whole-cell lysates,low level
PykF^K382Q,growth,E. coli MG1655; LB medium,grew the slowest
same,growth,E. coli MG1655; M9 with 1% glucose,grew slowest
same,enzymatic activity vs wild type,PykF [3],significantly decreased
same,Relative activity of PykF,PykF [4]; [5],0.52
same,Relative activity of PykF,PykF [4]; [6],0.47
same,Relative activity of PykF,PykF [4]; [7],0.58
same,Relative activity of PykF,PykF [4]; [8],0.4941
same,Relative activity of PykF,PykF [4]; [9],0.4204
same,intracellular PykF activity,PykF [4]; LB medium,lowest activity
same,intracellular PykF activity,PykF [4]; M9 with 1% glucose,lowest PykF activity
"PykF^K382R: PykF mutant, unmodified K mimic; pPykF^K382R = overexpressing strain",growth,E. coli MG1655; LB medium,fastest growth
same,growth,E. coli MG1655; M9 with 1% glucose,grew fastest
same,enzymatic activity vs wild type,PykF [3],increased
same,Relative activity of PykF,PykF [4]; [5],1.38
same,Relative activity of PykF,PykF [4]; [6],1.06
same,Relative activity of PykF,PykF [4]; [7],1.54
same,Relative activity of PykF,"PykF [4]; Fig. 6g, M9 with 1% glucose, replicate 1",1.27
same,Relative activity of PykF,PykF [4]; [8],1.36
same,Relative activity of PykF,PykF [4]; [9],1.3593
same,intracellular PykF activity,PykF [4]; LB medium,highest activity
same,intracellular PykF activity,PykF [4]; M9 with 1% glucose,highest PykF activity
"Succinyl coenzyme A [succinyl-CoA, reference compound]",binding (Bin),YiaC [1],no binding
B1,enzymatic activity vs wild type,PncB,significantly decreased
same,Residual percentage of reaction,"PncB; replicate 1, relative to C",0.3998
same,Determination of nicotinic acid,PncB; [10],117663852
same,Determination of nicotinic acid,PncB; replicate 2,149776081
same,Residual percentage of reaction,"PncB; replicate 2, relative to C",0.4956
same,Determination of nicotinic acid,PncB; replicate 3,106239984
same,Residual percentage of reaction,"PncB; replicate 3, relative to C",0.3796
B2,enzymatic activity vs wild type,PncB,increased
same,Residual percentage of reaction,"PncB; replicate 1, relative to C",0.01962
same,Determination of nicotinic acid,PncB; [10],5775041
same,Determination of nicotinic acid,PncB; replicate 2,6028387
same,Residual percentage of reaction,"PncB; replicate 2, relative to C",0.01995
same,Determination of nicotinic acid,PncB; replicate 3,5793798
same,Residual percentage of reaction,"PncB; replicate 3, relative to C",0.0207
B3,Residual percentage of reaction,"PncB; replicate 1, relative to C",0.08118
same,Determination of nicotinic acid,PncB; [10],23891965
same,Determination of nicotinic acid,PncB; replicate 2,25485329
same,Residual percentage of reaction,"PncB; replicate 2, relative to C",0.08433
same,Determination of nicotinic acid,PncB; replicate 3,18539215
same,Residual percentage of reaction,"PncB; replicate 3, relative to C",0.06624
B4,formation of lactyl-CoA from lactate,Acs,neither Acs nor PrpE could catalyze the formation of lactyl-CoA from lactate
